Molecular target: CNGB3N-EGFP-F (striped bass (Morone saxatilis)) (UniProt Q3I0N1)
Experiment: FRET or BRET

E FRET (FRET efficiency), mean: 0.3
Substance: CNG-modulin-HaloTag-TMR (from UniProt H8PG32 1-301) (natural protein)

— paper PMC3296131
